# Assay results: patent US20240309104A1 (PROMETHEUS BIOSCIENCES, published 2024)
# Values joined by “and” are separate entries in the source; they are usually repeats but may differ in a detail not shown here. Identical values can stand only once.
# Legend:
# Experiment in all cases: cell-based or functional assay
# [1] = target: T1, recombinant cynomolgus monkey TL1A protein (cynomolgus monkey, UniProt G7PRK8 72-251)
# T1 sequence: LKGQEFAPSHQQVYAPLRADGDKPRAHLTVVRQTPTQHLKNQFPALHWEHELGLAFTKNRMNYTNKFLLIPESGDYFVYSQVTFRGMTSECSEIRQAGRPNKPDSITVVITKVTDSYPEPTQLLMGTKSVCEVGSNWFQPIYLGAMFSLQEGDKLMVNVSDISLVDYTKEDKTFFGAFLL
# [2] = target: T2, TL1A produced by PBMCs in cynomolgus monkey whole blood (cynomolgus monkey, UniProt G7PRK8 72-251)
# T2 sequence: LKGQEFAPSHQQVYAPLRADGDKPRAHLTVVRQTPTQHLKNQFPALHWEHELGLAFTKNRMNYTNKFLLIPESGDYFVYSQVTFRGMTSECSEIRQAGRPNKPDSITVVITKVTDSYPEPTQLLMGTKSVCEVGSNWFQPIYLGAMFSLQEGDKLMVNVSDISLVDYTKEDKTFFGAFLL
# [3] = target: T3, recombinant human TL1A protein (human, UniProt O95150 72-251)
# T3 sequence (looked up): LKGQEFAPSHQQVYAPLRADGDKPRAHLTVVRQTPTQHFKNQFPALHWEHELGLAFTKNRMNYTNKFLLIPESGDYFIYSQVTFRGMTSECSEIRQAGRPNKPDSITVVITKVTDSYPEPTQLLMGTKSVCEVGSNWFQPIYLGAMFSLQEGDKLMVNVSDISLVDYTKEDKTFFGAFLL
binder,measurement,setting,value
"anti-TL1A antibody A219 (antibody, V domains shown) VH: QVQLVQSGAEVKKPGASVKVSCKASGFDIQDTYMHWVKQRPGQGLEWMGRIDPASGHTKYDPKFQVRVTITRDTSTSTVYLELSSLRSEDTAVYYCARSGGLPDVWGQGTTVTVSS VL: EIVLTQSPGTLSLSPGERATLSCRASSSVSYMYWYQQKPGQAPRPLIYATSNLASGIPDRFSGSGSGTDFTLTISRLEPEDFAVYYCQQWEGNPRTFGGGTKLEIK",inhibition of TL1A-induced caspase activation in TF-1 cells (IC50),[1],0.59 nM
same,inhibition of the IFN-γ response in monkey whole blood (mean IC50),[2],1.54 nM and 289 ng/mL
same,inhibition of TL1A-induced caspase activation in TF-1 cells (IC50),[3],0.27 nM
